Measured values published in patent publication US8445240B2, “Termite enzymes and uses thereof for in vitro conversion of lignin-containing materials to fermentable products” (University of Florida Research Foundation, Inc., priority 2009, dated 2013).
“Also recorded” adds a separate entry of the source.

Legend:
RfLac6 = test: Recombinant laccase Lac6 inhibition and enhancement, 2,6-DMP oxidation; assay type: biochemical, Reticulitermes flavipes; settings: 1 mM 2,6-DMP, pH 7.5
Method: Enzyme and inhibitors were pre-incubated 5 min at room temperature on an orbital shaker before adding substrate.

recombinant RfBGluc-1 = test: Inhibition of recombinant RfBGluc-1; assay type: biochemical, Reticulitermes flavipes; settings: 25° C., sodium acetate 0.1M pH 7, 2 mM p-nitrophenyl-B-D-glucopyranoside
Method: Assays were conducted at 25° C. in sodium acetate buffer (0.1M, pH 7) using 2 mM p-nitrophenyl-B-D-glucopyranoside as the substrate.

[1] = test system: R. flavipes worker gut esterases; test: Gut esterase activity toward naphthyl esters, native PAGE and colorimetric microplate assays; assay type: biochemical, Reticulitermes flavipes; settings: foregut/salivary gland, midgut, hindgut
Method: Dissections, protein preparation, centrifugation protocols, and protein assays: All manipulations were performed on ice. For tissue localization studies, 25 termite worker guts were removed and dissected into the three regions of foregut/salivary gland, midgut and hindgut. Each gut region preparation was homogenized using a Tenbroeck glass homogenizer in potassium phosphate (0.1M, pH 7.6), and then centrifuged for 15 min at 14,000×g and 4° C. The supernatant was saved for assays and the pellet discarded.
Gut esterase activity toward naphthyl esters with varying carbon chain lengths: Activities toward different naphthyl ester substrates were investigated in different regions of the termite gut using native PAGE, as above, the results being shown in FIGS. 4 and 5. […].
. Differences in activity between α-naphthyl butyrate and acetate were not as evident on native PAGE as in activity assays. Thus, the majority/greatest diversity of gut esterase activity in R. flavipes is located in the midgut, and that activity is greatest toward the 3-carbon ester naphthyl propionate. […]

[2] = substrate: OCc1ccccc1O[C@@H]1O[C@H](CO)[C@@H](O)[C@H](O)[C@H]1O; test: Activity of recombinant RfBGluc-1 towards natural substrates, endpoint glucose detection assay; assay type: biochemical, Reticulitermes flavipes; settings: other: natural substrates; endpoint at 505 nm, glucose detection reagent; mean ± standard error
Method: (§2) Natural carbohydrate substrates (Table 2) were tested in endpoint assays in which color development was enabled using 439-90901 glucose-mutarose detection reagent (Wako Chemical; Richmond, Va.). Assays were conducted in 125 μL for 5 min at room temperature as described above and stopped with the addition of 125 μL glucose detection reagent. After 1 min, the absorbance was read at 505 nm.

[3] = substrate: OC[C@H]1O[C@@H](O[C@H]2[C@H](O)[C@@H](CO)OC(O)[C@@H]2O)[C@H](O)[C@@H](O)[C@@H]1O; test: as above; assay type: biochemical, Reticulitermes flavipes; settings: other: natural substrates; endpoint at 505 nm, glucose detection reagent; mean ± standard error
Method: as §2

[4] = substrate: C[C@H]1O[C@@H](Oc2ccc([N+](=O)[O-])cc2)[C@H](O)[C@@H](O)[C@H]1O; test: Activity of recombinant RfBGluc-1 towards synthetic nitrophenol substrates, kinetic microplate assay; assay type: biochemical, Reticulitermes flavipes; settings: other: synthetic NP substrates; read kinetically at 420 nm; mean ± standard error, 3-5 replicates; pH 6.0
Method: (§1) All initial characterization assays took place in 0.1 M sodium acetate buffer (pH 6) using 2 μL of recombinant enzyme preparation (=1.58 μg protein per assay) in a total reaction volume of 250 μL. Synthetic p-nitrophenol substrates (Table 1) were tested in direct kinetic assays using a microplate reader. Reactions were initiated by adding 248 μL assay buffer to 2 μL protein. Assays were read at 420 nm every 20 sec for 5 min to yield mean velocity data in mOD/min. Specific activity was determined with the p-nitrophenol extinction coefficient of 0.6605 mM^−1 cm^−1. All results were averaged from three independent replicates, each conducted in triplicate.

[5] = substrate: O=[N+]([O-])c1ccc(O[C@@H]2O[C@H](CO)[C@@H](O[C@@H]3O[C@H](CO)[C@@H](O)[C@H](O)[C@H]3O)[C@H](O)[C@H]2O)cc1; test: as above; assay type: biochemical, Reticulitermes flavipes; settings: other: synthetic NP substrates; read kinetically at 420 nm; mean ± standard error, 3-5 replicates; pH 6.0
Method: as §1

[6] = substrate: O=[N+]([O-])c1ccccc1O[C@@H]1OC[C@@H](O)[C@H](O)[C@H]1O; test: as above; assay type: biochemical, Reticulitermes flavipes; settings: other: synthetic NP substrates; read kinetically at 420 nm; mean ± standard error, 3-5 replicates; pH 6.0
Method: as §1

[7] = substrate: O=[N+]([O-])c1ccc(O[C@@H]2O[C@H](CO)[C@@H](O)[C@H](O)[C@H]2O)cc1; test: as above; assay type: biochemical, Reticulitermes flavipes; settings: other: synthetic NP substrates; read kinetically at 420 nm; mean ± standard error, 3-5 replicates; pH 6.0
Method: as §1

[8] = substrate: O=[N+]([O-])c1ccc(O[C@@H]2O[C@H](CO)[C@@H](O[C@@H]3O[C@H](CO)[C@@H](O[C@@H]4O[C@H](CO)[C@@H](O)[C@H](O)[C@H]4O)[C@H](O)[C@H]3O)[C@H](O)[C@H]2O)cc1; test: as above; assay type: biochemical, Reticulitermes flavipes; settings: other: synthetic NP substrates; read kinetically at 420 nm; mean ± standard error, 3-5 replicates; pH 6.0
Method: as §1

[9] = substrate: O=[N+]([O-])c1ccccc1O[C@@H]1O[C@H](CO)[C@@H](O)[C@H](O)[C@H]1O; test: as above; assay type: biochemical, Reticulitermes flavipes; settings: other: synthetic NP substrates; read kinetically at 420 nm; mean ± standard error, 3-5 replicates; pH 6.0
Method: as §1

[10] = substrate: O=[N+]([O-])c1ccc(O[C@@H]2O[C@H](CO)[C@@H](O[C@@H]3O[C@H](CO)[C@@H](O[C@@H]4O[C@H](CO)[C@@H](O[C@@H]5O[C@H](CO)[C@@H](O)[C@H](O)[C@H]5O)[C@H](O)[C@H]4O)[C@H](O)[C@H]3O)[C@H](O)[C@H]2O)cc1; test: as above; assay type: biochemical, Reticulitermes flavipes; settings: other: synthetic NP substrates; read kinetically at 420 nm; mean ± standard error, 3-5 replicates; pH 6.0
Method: as §1

[11] = substrate: Oc1ccccc1O; test: purified protein, by the assay type; settings: other: RfLacA
[12] = substrate: COc1cccc(OC)c1O; test: purified protein, by the assay type; settings: other: RfLacA; substrate concentration providing ½ maximal activity
[13] = substrate: COc1cc(/C=C/C(=O)O)cc(OC)c1O; test: purified protein, by the assay type; settings: other: RfLacA
[14] = Glucose release from pine sawdust by recombinant enzymes and mixtures; assay type: biochemical; settings: 2% w/v, 18 hrs, 37° C., pH 7
Method: All reactions were performed in 0.1 M sodium acetate buffer containing 10 mM calcium chloride (pH 7). The two feedstock substrates were pine sawdust (=lignin+cellulose+hemicellulose) and beechwood xylan (=lignin+hemicellulose). Feedstocks were tested at 2% w/v (10 mg in 0.5 mL buffer). Reactions were run for 18 hrs at 37° C. with shaking at 220 rpm in vented 1.5 mL plastic tubes.
Protein volumes used per assay were 10 μL of each of the Cell-1, β-glucosidase, and Laccase 6 recombinant protein preparations. These loading volumes provided 8.5, 7.9 and 2.0 μg of each protein, respectively, per reaction. The storage buffer for Cell-1 and β-glucosidase was 0.1 M sodium acetate, 0.15 M sodium chloride, and 0.5 M calcium chloride (pH 5.8). The storage buffer for Laccase 6 was 0.1M boric acid, phosphoric acid, and acetic acid (pH 7.0).
Reactions were stopped after 18 hours by the addition of 10 μL of 0.2 Methylene-diamine tetra-acetic acid and centrifuged for 5 min at 16,000×g. Glucose detection was performed in triplicate on 125 μL aliquots of each reaction supernatant. The entire experiment was replicated three times. Glucose release was measured using the Autokit Glucose reagent kit (Wako Chemical, Richmond, Va.) at a volume of 125 μL per determination. Glucose was quantified based on absorbance at 505 nm relative to glucose standard curves. Standard curves were prepared in eight serial dilutions downward from 0.6 mM in sodium acetate-calcium chloride reaction buffer.

[15] = substrate concentration providing ½ maximal activity

Method for Cell-1: Thermal stability tests were conducted using 1.5% CMC in 100 mM sodium phosphate at the optimal pH of 7. Temperature-cofactor studies were performed using 1.5% CMC dissolved in 100 mM sodium phosphate (pH 7) alone, plus 4 mM EDTA (final concentration), or plus 10 mM calcium chloride (final concentration). Pre-incubations took place for 0-5 days at 25° C. or 0-60 min at 60° C. or 70° C.; reactions were terminated by the combination of adding stop solution and boiling for 10 min, and then assays were read at 25° C.
Calcium as a cofactor in β-1,4-endoglucanase Cell-1 hydrolytic activity and temperature stability: The effects of calcium on recombinant Cell-1 activity were investigated using calcium chloride as a calcium source and EDTA as a potential calcium chelator.

## O=C(O)CN(CCN(CC(=O)O)CC(=O)O)CC(=O)O [EDTA, ethylenediaminetetraacetate]
RfLac6; at concentrations as low as 0.01 mM
  effect on RfLac6 activity: completely inhibited
Cell-1; incubations over a 5-day period at about 25° C.
  effect on Cell-1 CMC endoglucanase activity: slightly inhibitory
Cell-1; pre-incubation at 60° C. and 70° C., 0-60 min
  effect on Cell-1 temperature stability: rapidly reduced temperature stability; also recorded: reduces temperature stability

## O=C(O)CS [TGA, thioglycolic acid]
RfLac6
  concentration up to which RfLac6 activity is enhanced, inhibitory above: ≤ 10 mM

## OC[C@@H]1[C@@H](O[C@@H]2O[C@H](CO)[C@@H](O)[C@H](O)[C@H]2O)[C@H](O)[C@@H](O)c2nccn21 [cellobioimidazole (CBI), cellobioimidazole]
Recombinant RfBGluc-1
  inhibition of recombinant RfBGluc-1: concentration-dependent inhibition

## CCCCCCCC(=O)Oc1cccc2ccccc12 [α-naphthyl caprylate]
[1]
  gut esterase activity toward the substrate: lowest esterase staining activity

## CCC(=O)Oc1cccc2ccccc12 [α-naphthyl propionate]
[1]
  gut esterase activity toward the substrate: significantly greatest activity

## fluoromethyl cellobiose [fluoromethyl cellobiose (FMCB)]
Recombinant RfBGluc-1
  inhibition of recombinant RfBGluc-1: concentration-dependent inhibition

B1: recombinant RfBGluc-1 β-glucosidase (Reticulitermes flavipes) (protein)
chain: ADVDNETLFTFPEDFKLGAATASYQIEGGWNADGKGVNIWDTLTHERSQLVVDKSSGDVADDSYHLYKEDVKLLKNMGAQLYRFSISWARILPEGHDNKVNQAGIEYYNKLIDELLDNGIEPMVTMYHWDLPQTLQDLGGWPNRELAKYSENYARVLFQNFGDRVKLWLTFNEPLTFMDAYASETGMAPSIDTPGIGDYLAAHTVILAHANIYRMYEREFKEEQKGKVGIALNIHWCEPVTNSTKDVEACERYQQFNLGIYAHPIFSVEGDYPSVLKARVDANSVTEGYTTSRLPKFTTEEVDFIRGTHDFLGLNFYTAVTGADGVEGEPPSRYRDMGAITSQDPDWPESASSWLRVVPWGFRKELNWIANEYGNPPIYITENGFSDYGGLNDTDRVLYYTEHLKEMLKAIHIDEVNVVGYTAWSLVDNFEWLRGYTERFGIHEVNFNDPSRPRVPKESAKVLTEIFNTRRIPERFLD
[2]
  Km: 34300 ± 14750 µM
  Vmax: 278 µmol/min/mg
[3]
  Km: 630 ± 20 µM
  Vmax: 218 µmol/min/mg
[4]
  Km: 900 ± 70 µM
  Vmax: 12.6 µmol/min/mg
[5]
  Km: 1560 ± 40 µM
  Vmax: 13.8 µmol/min/mg
[6]
  Km: 7570 ± 1170 µM
  Vmax: 8.77 µmol/min/mg
[7]
  Km: 1660 ± 70 µM
  Vmax: 22.9 µmol/min/mg
[8]
  Km: 1630 ± 500 µM
  Vmax: 22.6 µmol/min/mg
[9]
  Km: 1580 ± 190 µM
  Vmax: 4.2 µmol/min/mg
[10]
  Km: 590 ± 10 µM
  Vmax: 16.6 µmol/min/mg

B2: RfLacA (Reticulitermes flavipes) (protein)
chain: TSVLLNSYLQPNDDIDRNTYLLNAKSNNCARICNGTEAPKICYYQWTIENYVTLSEACDNCPLNVTACYNAQCITADGYERSILSVNRKLPGPSIEVCLRDRVIVDITNNMAGRTTSIHWHGVFQKGSQYMDGVPMVTQCTIHEGDTFRYDFIANNEGTHFWHSHDGLQKLDGVTGNLVVRVPKNFDPNGQLYDFDLPEHKIFISDWLHLSADDHFPGLRATNPGQDANSFLINGRGRTLIGTQSTNTPYAQINVQWGRRYRLRIVGSLCTVCPTQLTIDGHKITVIATDGNSVAPARVDSLIIYSGERYDVVLEATNTEGSYWIHLKGLATCVGSRVYQLGVLQYENTTTNKLHALTPDPGYDGFPQPASYRVLNPENASCSIGSTGLCVTQLANSDPVPRDILTQLPDINYLLQFGFETFDSRSFFKAYDRYFVSPFLELLSSTVNNISFVSPPSPLLSQRGDVPDDILCPTGADGLPQCPGGNSYCTCVHVIKIKLGALVQIILSDQSPKSDLNHPFHIHGHAFYVLGMGQYAAGQTAQDLLNSLKSNVSSVSPAPVLKDTVAVPSGGYAIIKFRPKNPGYWFLHCHFLYHVATGMSVVLQVGETSDYPPTPDGFPKCGSFTPPVNTN
[11]
  Vmax: 15.4 µM/min
[11]; [15]
  Km: 17527 µM
[12]
  Km: 34888 µM
  Vmax: 0.26 µM/min
[13]
  Vmax: 0.247 µM/min
[13]; [15]
  Km: 5022 µM

B3: β-glucosidase: recombinant R. flavipes β-glucosidase, amino acid sequence SEQ ID NO.: 6 (protein)
chain: MRLQTVCFVIFVTAVFGADVDNETLFTFPEDFKLGAATASYQIEGGWNADGKGVNIWDKLTHERSQLVVDKSSGDVADDSYHLYKEDVKLLKNMGAQLYRFSISWARILPEGHDNKVNQAGIEYYNKLIDELLDNGIEPMVTMYHWDLPQTLQDLGGWPNRELAKYSENYARVLFQNFGDRVKLWLTFNEPLTFMDAYASETGMAPSIDTPGIGDYLAAHTVILAHANIYRMYEREFKEEQKGKVGIALNIHWCEPVTNSTKDVEACERYQQFNLGIYAHPIFSVEGDYPSVLKARVDANSVTEGYTTSRLPKFTTEEVDFIRGTHDFLGLNFYTAVTGADGVEGEPPSRYRDMGAITSQDPDWPQSASSWLRVVPWGFRKELNWIANEYGNPPIYITENGFSDYGGLNDTDRVLYYTEHLKEMLKANHIDEVNVVGYTTWRPVDNFEWLRGYTERFGIHEVNFNDPSRPRVPKESAKVLTEIFNTRRIPERFLD
modifications: Reticulitermes flavipes; amino acid sequence beta-glucosidase “contig 771”
[14]
  glucose release from pine sawdust (in words): No glucose release was detectable
